Source: patent US20230090114A1, “METHODS FOR PROMOTING WEIGHT LOSS” (89BIO LTD., priority 2020, published 2023)

Columns and labels:
Assay type in all cases: in vivo, CD-1 mice
[1] = Total spontaneous activity and rearing (METABOpack sessions); conditions: T2; WD; 0.3 and 3 mg/kg; vs Liraglutide
Procedure: Horizontal spontaneous activity and rearing behavior were recorded every second by the Physiocage System. The analysis was performed by plotting data every 30 minutes in order to obtain the kinetic of the behaviors. For each mouse, the sums of the activity and rearing events were calculated for each nycthemeral phase (Diurnal period or DP; Nocturnal period or NP and Whole Day or WD). The means per nycthemeral phase were then calculated for each group for statistical comparisons.

[2] = Semi-fasted blood glucose (4 hours of fasting)
[3] = Water intake (METABOpack sessions);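 as to cumulative water intake: water intake recorded in mL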
From the text: During the METABOpack™ sessions, animals were housed singly in the Physiocage System (Panlab/Harvard apparatus), which was composed of: • 8 physiocages (LE1301) • 8 Air tight lids for mouse (LE1303) • 8 grid floors for mouse (LE1317) • 8 Feeding bottles for mouse (LE1306) • 2 Air supply and switching units for up to 4 home cages each (LE4004FL) • 1 O2/CO2 analyzer (LE405) • 1 acquisition software suite, METABOLISM (V3.0).
In the present project, a METABOpack™ session was consisted of a 12-hour period of acclimation followed by a 48-hour period of recording of the respiratory exchanges, FI, water intake (WI) and locomotor activity of each animal.
Following this acclimation period, the parameters cited above were automatically and simultaneously recorded for 48 hours, except for body weight that was measured manually every day.
The METABOpack™ sessions were conducted at the start (T1-2), the middle (T14-15) and the end (T26-27) of the treatment period.

B1: Mutant FGF21-GalNAc-SA-PEG-20 kDa (conjugate)
chain: MHPIPDSSPLLQFGGQVRQRYLYTDDAQQTEAHLEIREDGTVGGAADQSPESLLQLKALKPGVIQILGVKTSRFLCQRPDGALYGSLHFDPEACSFRELLLEDGYNVYQSEAHGLPLHLPGNKSPHRDPAPRGPARFLPLPGLPPALPEPPGILAPQPPDVGSSDPLSMVGPTQGASPSYAS
Q: Which total spontaneous activity [1] does the source give for B1 here?
A: higher total spontaneous activity

Q: What about the blood glucose levels ([2]; T3 and T16, between 89BIO-treated groups) of the same molecule?
A: no significant difference

Q: What about the blood glucose levels ([2]; T3 and T16, whatever the dose, vs Liraglutide) of the same molecule?
A: higher blood glucose levels

Q: And the blood glucose levels ([2]; T3 and T16, whatever the dose, vs vehicle)?
A: did not alter

Q: What about the blood glucose levels ([2]; T28, 3 mg/kg, vs 0.3 and 1 mg/kg) of the same molecule?
A: higher blood glucose levels

Q: What about the blood glucose levels ([2]; T28, 3 mg/kg, vs vehicle) of the same molecule?
A: significant increase in blood glucose levels

Q: And the blood glucose levels ([2]; T29 (so in the source), 0.3 and 3 mg/kg, vs Liraglutide)?
A: increased

Q: And the hypoglycemic action ([2]; wild-type CD-1 mice, in contrast to Liraglutide (summary))?
A: did not have a hypoglycemic action

Q: What about the mean water intake ([3]; T1, DP, 3 mg/kg, vs 0.3 and 1 mg/kg) of the same molecule?
A: decreased

Q: What about the mean water intake ([3]; T1, DP, 0.3 and 1 mg/kg, vs Liraglutide) of the same molecule?
A: increased

Q: What about the mean water intake ([3]; T1, NP and WD, whatever the dose, vs Liraglutide) of the same molecule?
A: increase in mean water intake

Q: What about the mean water intake ([3]; T1, three doses, vs vehicle) of the same molecule?
A: no significant difference

Q: And the cumulative water intake ([3]; T2, 0.3 mg/kg, vs Liraglutide, 5-24 h)?
A: increased

Q: What about the cumulative water intake ([3]; T2, 0.3 mg/kg, vs vehicle, at 5, 6, 7, 9, 10 h and 12-24 h) of the same molecule?
A: increased

Q: What about the cumulative water intake ([3]; T2, 1 mg/kg, vs Liraglutide, 4-24 h) of the same molecule?
A: increased

Q: What about the cumulative water intake ([3]; T2, 1 mg/kg, vs vehicle, 4-24 h) of the same molecule?
A: increased

Q: What about the cumulative water intake ([3]; T2, 3 mg/kg, vs Liraglutide, 2-24 h) of the same molecule?
A: increased

Q: What about the cumulative water intake ([3]; T2, 3 mg/kg, vs vehicle, 2-24 h) of the same molecule?
A: increased

Q: And the mean water intake ([3]; T2, NP, 0.3 and 1 mg/kg, vs vehicle)?
A: increased

Q: And the mean water intake ([3]; T2, WD, whatever the dose, vs vehicle)?
A: increased

Q: What about the cumulative water intake ([3]; T2, between the three 89BIO-100 groups) of the same molecule?
A: no significant difference

Q: What about the mean water intake ([3]; T2, whatever the phase, whatever the dose, vs Liraglutide) of the same molecule?
A: increase in mean water intake

Q: And the cumulative water intake ([3]; T14, 1 mg/kg, vs 0.3 mg/kg, at 2 h and 7-24 h)?
A: increased

Q: And the cumulative water intake ([3]; T14, 3 mg/kg, vs 0.3 mg/kg, 3-24 h)?
A: increased

Q: What about the cumulative water intake ([3]; T14, 1 and 3 mg/kg, vs Liraglutide, 2-24 h) of the same molecule?
A: increased

Q: What about the cumulative water intake ([3]; T14, 1 and 3 mg/kg, vs vehicle, 2-24 h) of the same molecule?
A: increased

Q: And the mean water intake ([3]; T14, NP, 1 and 3 mg/kg, vs 0.3 mg/kg)?
A: increased

Q: And the mean water intake ([3]; T14, WD, 3 mg/kg, vs 0.3 mg/kg)?
A: increased

Q: And the mean water intake ([3]; T14, whatever the phase, 1 and 3 mg/kg, vs Liraglutide)?
A: increase in mean water intake

Q: What about the mean water intake ([3]; T14, whatever the phase, 1 and 3 mg/kg, vs vehicle) of the same molecule?
A: increased

Q: What about the cumulative water intake ([3]; T15, 1 mg/kg, vs 0.3 mg/kg, 2-24 h) of the same molecule?
A: increased

Q: And the cumulative water intake ([3]; T15, 3 mg/kg, vs 0.3 mg/kg, 1-15 h)?
A: increased

Q: And the cumulative water intake ([3]; T15, 1 and 3 mg/kg, vs Liraglutide, over 24 h)?
A: increased

Q: What about the cumulative water intake ([3]; T15, 1 and 3 mg/kg, vs vehicle, over 24 h) of the same molecule?
A: increased

Q: And the cumulative water intake ([3]; T26, 1 mg/kg, vs Liraglutide, at 3 h, 4 h and 6-21 h)?
A: increased

Q: And the cumulative water intake ([3]; T26, 1 mg/kg, vs vehicle, only at 3 h and 4 h)?
A: increased

Q: What about the cumulative water intake ([3]; T26, 3 mg/kg, vs 0.3 mg/kg, 5-16 h) of the same molecule?
A: increased

Q: What about the cumulative water intake ([3]; T26, 3 mg/kg, vs Liraglutide, 3-24 h) of the same molecule?
A: increased

Q: What about the cumulative water intake ([3]; T26, 3 mg/kg, vs vehicle, 3-24 h) of the same molecule?
A: increased

Q: What about the mean water intake ([3]; T26, NP and WD, 3 mg/kg, vs vehicle) of the same molecule?
A: increased

Q: What about the mean water intake ([3]; T26, NP, 3 mg/kg, vs 0.3 mg/kg) of the same molecule?
A: increased

Q: And the mean water intake ([3]; T26, NP, 1 and 3 mg/kg, vs Liraglutide)?
A: increase in mean water intake

Q: What about the mean water intake ([3]; T26, WD, 3 mg/kg, vs Liraglutide) of the same molecule?
A: increase in mean water intake

Q: And the cumulative water intake ([3]; T27, 1 mg/kg, vs vehicle, 2-5 h)?
A: increased

Q: What about the cumulative water intake ([3]; T27, 3 mg/kg, vs 0.3 mg/kg, at 1 h and 3-8 h) of the same molecule?
A: increased

Q: What about the cumulative water intake ([3]; T27, 3 mg/kg, vs 1 mg/kg, at 3 h, 4 h, 5 h and 7 h) of the same molecule?
A: increased

Q: And the cumulative water intake ([3]; T27, 3 mg/kg, vs Liraglutide, over 24 h)?
A: increased

Q: And the cumulative water intake ([3]; T27, 3 mg/kg, vs vehicle, over 24 h)?
A: increased

Q: What about the mean water intake ([3]; T27, NP and WD, 3 mg/kg, vs vehicle and Liraglutide groups) of the same molecule?
A: increased

Q: And the mean water intake ([3]; section On T15 (text prints T14), NP and WD, 1 and 3 mg/kg, vs vehicle)?
A: increased

Q: What about the mean water intake ([3]; section On T15, NP and WD, 1 and 3 mg/kg, vs Liraglutide) of the same molecule?
A: increase in mean water intake

Q: What about the mean water intake ([3]; section On T15, NP, 1 and 3 mg/kg, vs 0.3 mg/kg) of the same molecule?
A: increased

Q: What about the mean water intake ([3]; section On T15, WD, 1 mg/kg, vs 0.3 mg/kg) of the same molecule?
A: increased
